According to patent US20110129488A1, “IMMUNOTHERAPY COMPOSITIONS FOR THE TREATMENT AND PREVENTION OF AMYLOIDOSIS” (MEDIVET PHARMA, S.L., priority 2008, published 2011):
Where no end group is shown, it is not given here.

Assays:
[1] = biological target: Abeta 1-40 peptide (Canis lupus familiaris, UniProt Q28280); assay: Anti-Abeta IgG titration (ELISA) of serum from immunized rabbits; assay type: in vivo, rabbit
Protocol: To design a veterinary vaccine composition that generates a high level of high affinity antibodies with cross reactivity to the soluble Abeta 1-40 peptide and the plaques in the CNS of dogs with CDS, the relative immunogeneicity of the synthesized sequences of example 1 were characterized separately. To do that, SEQ ID NO 1 and SEQ ID NO 3 were administered conjugated with KLH and mixed with 1 mg of Alum (Sigma, St Louis, U.S.A.) an adjuvant of general veterinary use. The relative immunogenicity of the two peptide sequences was compared according to standard titration of the immune products generated.
Experiments were performed in adult female New Zealand White rabbits weighing between 1.5-2 kg at the beginning of the study. They were kept on a 12 h light/12 h dark cycle and housed with free access to food and water. All animals were manipulated according to the European legislation (86/609/EEC) for animal handling and experimentation. Procedures were approved by the Ethic Committee of the Universitat de Barcelona, under supervision of the Generalitat de Catalunya; all efforts were made to minimize animal suffering and to use only the number of animals necessary to produce reliable scientific data.
Rabbits were subcutaneously immunized with 100 μg of peptide from either: a) SEQ ID NO 3 conjugated with KLH and 1 mg Alum used as adjuvant (n=2); b) SEQ ID NO 1 conjugated with KLH and 1 mg Alum used as adjuvant (n=2); or c) KLH and 1 mg Alum (no peptide n=2). The immunization protocol consisted of a dose subcutaneously delivered up to six sites near the back of the neck, and repeated at days 11, 21, 31 and 41.
Samples of serum were collected from each rabbit at days 0, 21, 31 and 51. Each time, 5 ml blood samples were collected from the ear marginal vein in plastic tubes with no additive. At day 71 rabbits were anaesthetized and exanguinated. Blood samples were then kept at room temperature (RT) for 30 min, afterwards they were centrifuged for 10 min at 3000 rpm. Supernatants were collected as serum samples, aliquoted and stored at −80° C.
Titration of serum samples to detect the presence of antibodies that had been raised by SEQ ID NO 1 and SEQ ID NO 3 was performed by Enzime-Linked Immunosorbent Assays (ELISA) on 96-well plates developed by the biotin-avidin-peroxidase method. Plate sensitization was made overnight at 4° C. with 2 μg/ml of Abeta 1-40 peptide diluted in 50 mM NaHCO3, pH 9.6. […] After washing, specific binding was detected by incubation with Biotin conjugated anti-Rabbit IgG antibody (Sigma, St. Louis, Mo., U.S.A) diluted 1/20000 in TBS for 1 hour at RT. […] Plates were densitometrically analyzed at 450 nm with a Tecan Sunrise Absorbance Reader apparatus (Tecan Iberica, Madrid, Spain). […]

[2] = biological target: T1, canine Abeta 1-40 peptide (Canis lupus familiaris, UniProt Q28280); assay: Anti-Abeta IgG titration (ELISA) of serum from immunized dogs; assay type: in vivo, dog
T1 construct: made in house; host or cells: chemical synthesis (Fmoc solid phase), no expression host
Protocol: To validate the immunogenicity of the peptide according to the present invention, dogs were immunized with the synthesized Abeta 28-40 peptide (SEQ ID NO 3) and antibody generation was assessed in serum samples by ELISA. To do that, the peptide fragment was administered conjugated with KLH and mixed with 1 mg Alum (Sigma, St. Louis, Mo., U.S.A.), an adjuvant of general veterinary use. The immunogenicity of the Abeta28-40 peptide was compared versus pre-immune serum according to standard titration of the immune products generated.
Male and female dogs of various breeds, sex and ages certified by their medical records from the veterinary hospital Ars Veterinaria of Barcelona, Spain, were used in this study. In all cases, pet owners formally informed approved the treatment of their dogs. All animals were treated according to European legislation on animal experimentation (86/609/EU), and procedures were approved by the Ethical Committee of the University of Barcelona. All efforts were made to minimize animal suffering and to use no more than the number of animals needed for reliable scientific data.
Dogs were subcutaneously immunized with either: a) 100 μg per animal of SEQ ID NO 3 conjugated with KLH and 1 mg Alum used as adjuvant (n=2) or b) 100 μg per animal of KLH and 1 mg Alum (no peptide n=2). […]

[3] = biological target: T1, canine Abeta 1-40 peptide; assay: ELISA titration of affinity-purified antibodies from rabbit serum; assay type: binding, dog
Excerpt: Antibody purification was made by affinity chromatography in columns of 4B Sepharose activated with BrCN (GE healthcare 15gr) according to standard procedures. Synthetic Abeta1-40 peptide (SEQ ID NO 1) was linked to the BrCN and used as antigen for the affinity purification of antibodies. Anti-Abeta28-40 antibodies were purified from rabbit serum samples presenting the highest level of titers, i.e. serum samples collected on day 31 after immunization (example 2). The same was true for serum samples used for purification of anti-Abeta 1-40 antibodies. Purified antibodies were firstly eluted with an acid solution of 100 mM glycine in PBS (pH 2.5) and, then with a basic solution of 100 mM glycine and 4 M urea in PBS (pH 9)
The purified antibodies were quantified by ELISA on 96-well plates developed by the biotin-avidin-peroxidase method. Plate sensitization was made overnight at 4° C. with […] of canine Abeta 1-40 peptide diluted in 50 mM NaHCO3 pH 9.6. The ELISA procedure was then carried out as explained in example 2.

[4] = test system: Aβ 1-40 and Aβ 1-42, diffuse plaque; conditions: aged beagles (8.4-12.4 years) immunized for 2.4 years; several cortical regions; cited from earlier work
[5] = test system: aged beagles; conditions: aged beagles (8.4-12.4 years) immunized for 2.4 years; cited from earlier work

T1 sequence (Q28280 7-46): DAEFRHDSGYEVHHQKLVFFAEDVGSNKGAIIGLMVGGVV
Sequence of Abeta 1-40 peptide (Q28280 7-46 limits assumed): as the sequence (Q28280 7-46) above

Substance	serum dilution that presents half of the maximal binding (B1/2) ([1]; 100 μg peptide s.c. conjugated with KLH + 1 mg Alum, repeated days 11, 21, 31, 41, serum of day 31)	immunogenic response compared with SEQ ID NO 1 ([1]; comparison of B1/2 dilutions of day 31)	specific production of antibodies in serum samples ([1]; peptide-KLH + Alum s.c., from day 21 following the first immunization)	day of highest levels of immunization ([1]; peptide-KLH + Alum s.c., serum days 0, 21, 31, 51)	specific production of anti-Abeta antibodies in serum samples ([2]; 100 μg per animal conjugated with KLH + 1 mg Alum s.c., repeated days 31, 61, 75, day 30 after first immunization)	day of highest values of optic density ([2]; peptide-KLH + Alum s.c., serum days 0, 30, 60, 74, 90)	titers of anti-Abeta antibodies in the basic elution ([3]; basic elution (100 mM glycine, 4 M urea, pH 9), slightly lower than the acid elution)	titers of specific antibodies against canine Abeta1-40 in purified sera ([3]; day 31 serum of immunized rabbits, affinity purified on Abeta1-40 column)	extent of diffuse plaque accumulation [4]	levels of soluble and insoluble Aβ 1-40 and Aβ 1-42 [4]	measures of learning, spatial attention, or spatial memory [5]
KGAIIGLMVGGVV (also: KLH conjugate) [SEQ ID NO 3, canine Abeta protein amino acids 28 to 40; tested conjugated with KLH plus Alum]	1/611	higher immunogenic response	detected	31 days	detected	74 days	high titers	High titers			
fibrillar Aβ (1-42): fibrillar Aβ (1-42) formulated with aluminum salt (Alum), Head et al. 2008									significantly decreased	significantly decreased	no improvement
